The record followed here is patent publication US20120115739A1.

Assay [1] has as its target pepIII peptide (PepIII portion of EGFRvIII), 13-mer …. As to the kind of experiment: eluted supernatant of unblocked sample rebound to pepIII-conjugated beads, flow cytometry. (In general: Flow cytometry measures light scatter and fluorescence of single cells or particles in a stream.)
The target is the same in assay [2]. The assay can be described thus: eluted supernatant mixed with pepIII-conjugated beads and free pepIII competitor in the second round, flow cytometry.
Assay [3] has the same target. As to the kind of experiment: eluted supernatant of sample blocked with free pepIII in the first round of binding, rebound to pepIII-conjugated beads, flow cytometry.

On to L8A4 anti-pepIII monoclonal antibody, for which the antibody level (FIG. 2, fluorescence) in assay [1] came out at 31.2; in assay [2], 2.57; in assay [3], 2.21.
